{
  "source": "the supplement of paper PMC11908140",
  "parents": {"B1": {"name": "library; numbered along this chain (parent)", "chain": "MRKPRAAVGSGHRKQAASQEGRQKHAKNNSQAKPSACDGLARQPEEVVLQASVSSYHLFRDVAEVTAFRGSLLSWYDQEKRDLPWRRRAEDEMDLDRRAYAVWVSEVMLQQTQVATVINYYTGWMQKWPTLQDLASASLEEVNQLWAGLGYYSRGRRLQEGARKVVEELGGHMPRTAETLQQLLPGVGRYTAGAIASIAFGQATGVVDGNVARVLCRVRAIGADPSSTLVSQQLWGLAQQLVDPARPGDFNQAAMELGATVCTPQRPLCSQCPVESLCRARQRVEQEQLLASGSLSGSPDVEECAPNTGQCHLCLPPSEPWDQTLGVVNFPRKASRKPPREESSATCVLEQPGALGAQILLVQRPNSGLLAGLWEFPSVTWEPSEQLQRKALLQELQRWAGPLPATHLRHLGEVVHTFSHIKLTYQVYGLALEGQTPVTTVPPGARWLTQEEFHTAAVSTAMKKVFRVYQGQQPGTCMGSKRSQVSSPCSRKKPRMGQQVLDNFFRSHISTDAHSLNSAAQ"}},
  "data": [
    {"variants_of": "B1", "test": "8OG:A repair function score (normalized; synonymous = 0, nonsense = -1) (normalized log-likelihood score); higher = more repair activity (WT-like)", "details": "with 8OG:A DNA repair reporter (GFP) in HEK-293 MUTYH KO cells", "summary_of_the_method": "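MUTYH knockout HEK-293 cells carrying lentiviral MUTYH cDNA NNN codon-scan libraries were grown with 10 pg/ml doxycycline and co-transfected with mCherry and a GFP reporter of 8OG:A repair. Viable mCherry+ cells were sorted at 72 h into GFP+ (repair) and GFP− bins, with three replicates per tile, and tile amplicons were sequenced. Rosace fitness scores for each tile were turned into a normalized repair function score anchored on the synonymous and nonsense distributions. Synonymous medians were set to 0 and nonsense medians to -1, and variants below 300 counts per million at the start were dropped.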", "values": [
      {"variant": "MRKPRAAVGSGHRKQAASQEGRQKHAKNNSQAKPSACDGLARQPEEVVLQASVSSYHLFRDVAEVTAFRGSLLSWYDQEKRDLPWRRRAEDEMDLDRRAYAVWVSEVMLQQTQVATVINYYTGWMQKWPTLQDLASASLEEVNQLWAGLGYYSRGRRLQEGARKVVEELGGHMPRTAETLQQLLPGVGRYTAGAIASIAFGQATGVVDGNVARVLCRVRAIGADPSSTLVSQQLWGLAQQLVDPARPGDFNQAAMELGATVCTPQRPLCSQCPVESLCRARQRVEQEQLLASGSLSGSPDVEECAPNTGQCHLCLPPSEPWDQTLGVVNFPRKASRKPPREESSATCVLEQPGALGAQILLVQRPNSGLLAGLWEFPSVTWEPSEQLQRKALLQELQRWAGPLPATHLRHLGEVVHTFSHIKLTYQVYGLALEGQTPVTTVPPGARWLTQEEFHTAAVSTAMKSVFRVYQGQQPGTCMGSKRSQVSSPCSRKKPRMGQQVLDNFFRSHISTDAHSLNSAAQ", "note": "[K464S]", "8OG:A repair function score": -0.198},
      {"variant": "MRKPRAAVGSGHRKQAASQEGRQKHAKNNSQAKPSACDGLARQPEEVVLQASVSSYHLFRDVAEVTAFRGSLLSWYDQEKRDLPWRRRAEDEMDLDRRAYAVWVSEVMLQQTQVATVINYYTGWMQKWPTLQDLASASLEEVNQLWAGLGYYSRGRRLQEGARKVVEELGGHMPRTAETLQQLLPGVGRYTAGAIASIAFGQATGVVDGNVARVLCRVRAIGADPSSTLVSQQLWGLAQQLVDPARPGDFNQAAMELGATVCTPQRPLCSQCPVESLCRARQRVEQEQLLASGSLSGSPDVEECAPNTGQCHLCLPPSEPWDQTLGVVNFPRKASRKPPREESSATCVLEQPGALGAQILLVQRPNSGLLAGLWEFPSVTWEPSEQLQRKALLQELQRWAGPLPATHLRHLGEVVHTFSHIKLTYQVYGLALEGQTPVTTVPPGARWLTQEEFHTAAVSTAMKVVFRVYQGQQPGTCMGSKRSQVSSPCSRKKPRMGQQVLDNFFRSHISTDAHSLNSAAQ", "note": "[K464V]", "8OG:A repair function score": -0.276},
      {"variant": "MRKPRAAVGSGHRKQAASQEGRQKHAKNNSQAKPSACDGLARQPEEVVLQASVSSYHLFRDVAEVTAFRGSLLSWYDQEKRDLPWRRRAEDEMDLDRRAYAVWVSEVMLQQTQVATVINYYTGWMQKWPTLQDLASASLEEVNQLWAGLGYYSRGRRLQEGARKVVEELGGHMPRTAETLQQLLPGVGRYTAGAIASIAFGQATGVVDGNVARVLCRVRAIGADPSSTLVSQQLWGLAQQLVDPARPGDFNQAAMELGATVCTPQRPLCSQCPVESLCRARQRVEQEQLLASGSLSGSPDVEECAPNTGQCHLCLPPSEPWDQTLGVVNFPRKASRKPPREESSATCVLEQPGALGAQILLVQRPNSGLLAGLWEFPSVTWEPSEQLQRKALLQELQRWAGPLPATHLRHLGEVVHTFSHIKLTYQVYGLALEGQTPVTTVPPGARWLTQEEFHTAAVSTAMKWVFRVYQGQQPGTCMGSKRSQVSSPCSRKKPRMGQQVLDNFFRSHISTDAHSLNSAAQ", "note": "[K464W]", "8OG:A repair function score": -0.474},
      {"variant": "MRKPRAAVGSGHRKQAASQEGRQKHAKNNSQAKPSACDGLARQPEEVVLQASVSSYHLFRDVAEVTAFRGSLLSWYDQEKRDLPWRRRAEDEMDLDRRAYAVWVSEVMLQQTQVATVINYYTGWMQKWPTLQDLASASLEEVNQLWAGLGYYSRGRRLQEGARKVVEELGGHMPRTAETLQQLLPGVGRYTAGAIASIAFGQATGVVDGNVARVLCRVRAIGADPSSTLVSQQLWGLAQQLVDPARPGDFNQAAMELGATVCTPQRPLCSQCPVESLCRARQRVEQEQLLASGSLSGSPDVEECAPNTGQCHLCLPPSEPWDQTLGVVNFPRKASRKPPREESSATCVLEQPGALGAQILLVQRPNSGLLAGLWEFPSVTWEPSEQLQRKALLQELQRWAGPLPATHLRHLGEVVHTFSHIKLTYQVYGLALEGQTPVTTVPPGARWLTQEEFHTAAVSTAMKYVFRVYQGQQPGTCMGSKRSQVSSPCSRKKPRMGQQVLDNFFRSHISTDAHSLNSAAQ", "note": "[K464Y]", "8OG:A repair function score": -0.503},
      {"variant": "MRKPRAAVGSGHRKQAASQEGRQKHAKNNSQAKPSACDGLARQPEEVVLQASVSSYHLFRDVAEVTAFRGSLLSWYDQEKRDLPWRRRAEDEMDLDRRAYAVWVSEVMLQQTQVATVINYYTGWMQKWPTLQDLASASLEEVNQLWAGLGYYSRGRRLQEGARKVVEELGGHMPRTAETLQQLLPGVGRYTAGAIASIAFGQATGVVDGNVARVLCRVRAIGADPSSTLVSQQLWGLAQQLVDPARPGDFNQAAMELGATVCTPQRPLCSQCPVESLCRARQRVEQEQLLASGSLSGSPDVEECAPNTGQCHLCLPPSEPWDQTLGVVNFPRKASRKPPREESSATCVLEQPGALGAQILLVQRPNSGLLAGLWEFPSVTWEPSEQLQRKALLQELQRWAGPLPATHLRHLGEVVHTFSHIKLTYQVYGLALEGQTPVTTVPPGARWLTQEEFHTAAVSTAMKTVFRVYQGQQPGTCMGSKRSQVSSPCSRKKPRMGQQVLDNFFRSHISTDAHSLNSAAQ", "note": "[K464T]", "8OG:A repair function score": -0.351},
      {"variant": "MRKPRAAVGSGHRKQAASQEGRQKHAKNNSQAKPSACDGLARQPEEVVLQASVSSYHLFRDVAEVTAFRGSLLSWYDQEKRDLPWRRRAEDEMDLDRRAYAVWVSEVMLQQTQVATVINYYTGWMQKWPTLQDLASASLEEVNQLWAGLGYYSRGRRLQEGARKVVEELGGHMPRTAETLQQLLPGVGRYTAGAIASIAFGQATGVVDGNVARVLCRVRAIGADPSSTLVSQQLWGLAQQLVDPARPGDFNQAAMELGATVCTPQRPLCSQCPVESLCRARQRVEQEQLLASGSLSGSPDVEECAPNTGQCHLCLPPSEPWDQTLGVVNFPRKASRKPPREESSATCVLEQPGALGAQILLVQRPNSGLLAGLWEFPSVTWEPSEQLQRKALLQELQRWAGPLPATHLRHLGEVVHTFSHIKLTYQVYGLALEGQTPVTTVPPGARWLTQEEFHTAAVSTAMKKDFRVYQGQQPGTCMGSKRSQVSSPCSRKKPRMGQQVLDNFFRSHISTDAHSLNSAAQ", "note": "[V465D]", "8OG:A repair function score": -0.864}
    ]}
  ]
}
